From the supplement of paper PMC10567573

B1: RHOBTB3 (parent)
chain: VSHVFMLLFNVKSPTDIQDSSIIR

Variants of: B1
Assay: protein stability index of a GFP-peptide fusion (GPS, HEK-293T) (PSI 1-6); higher = more stable
Conditions: c terminus: a fixed tail appended
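Also: lentivirally expressed fusions sorted by FACS into six bins by GFP to DsRed ratio, PSI derived from sequencing read proportions per bin multiplied by bin number.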

Point of comparison: VSHVFMLLFNVKSPTDIQDSSISR [I23S], protein stability index 2.33. Against it:
- VSHVFMLLFNVKSPTDNQDSSIIR [I17N] — lower, 2.1
- VSHVFMLLFNVKSPTDPQDSSIIR [I17P] — higher, 2.88
- VSHVFMLLFNVKSPTDQQDSSIIR [I17Q] — lower, 1.58
- VSHVFMLLFNVKSPTDRQDSSIIR [I17R] — higher, 3.58
- VSHVFMLLFNVKSPTDSQDSSIIR [I17S] — lower, 1.18
- VSHVFMLLFNVKSPTDTQDSSIIR [I17T] — higher, 2.71
- VSHVFMLLFNVKSPTDVQDSSIIR [I17V] — higher, 2.81
- VSHVFMLLFNVKSPTDWQDSSIIR [I17W] — higher, 3.63
- VSHVFMLLFNVKSPTDYQDSSIIR [I17Y] — lower, 1.66
- VSHVFMLLFNVKSPTDIADSSIIR [Q18A] — higher, 3.32
- VSHVFMLLFNVKSPTDICDSSIIR [Q18C] — higher, 2.77
- VSHVFMLLFNVKSPTDIDDSSIIR [Q18D] — higher, 4.62
- VSHVFMLLFNVKSPTDIEDSSIIR [Q18E] — higher, 2.79
- VSHVFMLLFNVKSPTDIFDSSIIR [Q18F] — higher, 2.75
- VSHVFMLLFNVKSPTDIHDSSIIR [Q18H] — higher, 2.48
- VSHVFMLLFNVKSPTDIKDSSIIR [Q18K] — higher, 2.82
- VSHVFMLLFNVKSPTDINDSSIIR [Q18N] — lower, 1.19
- VSHVFMLLFNVKSPTDIPDSSIIR [Q18P] — higher, 3.69
- VSHVFMLLFNVKSPTDISDSSIIR [Q18S] — higher, 3.12
- VSHVFMLLFNVKSPTDITDSSIIR [Q18T] — higher, 2.57
- VSHVFMLLFNVKSPTDIVDSSIIR [Q18V] — higher, 3.53
- VSHVFMLLFNVKSPTDIWDSSIIR [Q18W] — higher, 3.42
- VSHVFMLLFNVKSPTDIYDSSIIR [Q18Y] — higher, 3.89
- VSHVFMLLFNVKSPTDIQASSIIR [D19A] — higher, 3.48
- VSHVFMLLFNVKSPTDIQESSIIR [D19E] — higher, 3.13
- VSHVFMLLFNVKSPTDIQFSSIIR [D19F] — lower, 2.28
- VSHVFMLLFNVKSPTDIQHSSIIR [D19H] — higher, 3.04
- VSHVFMLLFNVKSPTDIQISSIIR [D19I] — higher, 3.28
- VSHVFMLLFNVKSPTDIQKSSIIR [D19K] — lower, 2.3
- VSHVFMLLFNVKSPTDIQLSSIIR [D19L] — lower, 1.89
- VSHVFMLLFNVKSPTDIQMSSIIR [D19M] — higher, 4.57
- VSHVFMLLFNVKSPTDIQNSSIIR [D19N] — higher, 2.96
- VSHVFMLLFNVKSPTDIQPSSIIR [D19P] — higher, 2.41
- VSHVFMLLFNVKSPTDIQQSSIIR [D19Q] — higher, 2.96
- VSHVFMLLFNVKSPTDIQRSSIIR [D19R] — higher, 3.06
- VSHVFMLLFNVKSPTDIQSSSIIR [D19S] — higher, 2.93
- VSHVFMLLFNVKSPTDIQTSSIIR [D19T] — higher, 3.05
- VSHVFMLLFNVKSPTDIQDASIIR [S20A] — higher, 2.66
- VSHVFMLLFNVKSPTDIQDDSIIR [S20D] — higher, 2.91
- VSHVFMLLFNVKSPTDIQDFSIIR [S20F] — higher, 2.79
- VSHVFMLLFNVKSPTDIQDHSIIR [S20H] — higher, 2.49
- VSHVFMLLFNVKSPTDIQDISIIR [S20I] — higher, 2.98
- VSHVFMLLFNVKSPTDIQDKSIIR [S20K] — lower, 1.33
- VSHVFMLLFNVKSPTDIQDMSIIR [S20M] — higher, 3.1
- VSHVFMLLFNVKSPTDIQDPSIIR [S20P] — higher, 3.04
- VSHVFMLLFNVKSPTDIQDQSIIR [S20Q] — higher, 3.34
- VSHVFMLLFNVKSPTDIQDRSIIR [S20R] — lower, 1.66
- VSHVFMLLFNVKSPTDIQDTSIIR [S20T] — lower, 2.05
- VSHVFMLLFNVKSPTDIQDWSIIR [S20W] — higher, 3.16
- VSHVFMLLFNVKSPTDIQDYSIIR [S20Y] — higher, 2.66
- VSHVFMLLFNVKSPTDIQDSCIIR [S21C] — higher, 3.76
- VSHVFMLLFNVKSPTDIQDSFIIR [S21F] — higher, 3.07
- VSHVFMLLFNVKSPTDIQDSGIIR [S21G] — higher, 3.46
- VSHVFMLLFNVKSPTDIQDSHIIR [S21H] — higher, 2.35
- VSHVFMLLFNVKSPTDIQDSIIIR [S21I] — higher, 2.74
- VSHVFMLLFNVKSPTDIQDSKIIR [S21K] — lower, 1.84
- VSHVFMLLFNVKSPTDIQDSMIIR [S21M] — higher, 2.9
- VSHVFMLLFNVKSPTDIQDSQIIR [S21Q] — higher, 4.13
- VSHVFMLLFNVKSPTDIQDSTIIR [S21T] — higher, 3.42
- VSHVFMLLFNVKSPTDIQDSVIIR [S21V] — lower, 2.27
- VSHVFMLLFNVKSPTDIQDSWIIR [S21W] — higher, 3.54
- VSHVFMLLFNVKSPTDIQDSYIIR [S21Y] — higher, 3.45
- VSHVFMLLFNVKSPTDIQDSSCIR [I22C] — lower, 2.08
- VSHVFMLLFNVKSPTDIQDSSDIR [I22D] — higher, 2.8
- VSHVFMLLFNVKSPTDIQDSSFIR [I22F] — lower, 2.15
- VSHVFMLLFNVKSPTDIQDSSLIR [I22L] — higher, 2.98
- VSHVFMLLFNVKSPTDIQDSSNIR [I22N] — lower, 1.66
- VSHVFMLLFNVKSPTDIQDSSPIR [I22P] — higher, 3.69
- VSHVFMLLFNVKSPTDIQDSSQIR [I22Q] — higher, 2.63
- VSHVFMLLFNVKSPTDIQDSSRIR [I22R] — lower, 1.6
- VSHVFMLLFNVKSPTDIQDSSTIR [I22T] — higher, 2.35
- VSHVFMLLFNVKSPTDIQDSSVIR [I22V] — higher, 3.37
- VSHVFMLLFNVKSPTDIQDSSWIR [I22W] — lower, 2.17
- VSHVFMLLFNVKSPTDIQDSSYIR [I22Y] — higher, 2.62
- VSHVFMLLFNVKSPTDIQDSSIAR [I23A] — higher, 4.9
- VSHVFMLLFNVKSPTDIQDSSIDR [I23D] — higher, 2.83
- VSHVFMLLFNVKSPTDIQDSSIER [I23E] — lower, 1.89
- VSHVFMLLFNVKSPTDIQDSSIFR [I23F] — higher, 4.66
- VSHVFMLLFNVKSPTDIQDSSIGR [I23G] — higher, 2.5
- VSHVFMLLFNVKSPTDIQDSSIHR [I23H] — lower, 2.28
- VSHVFMLLFNVKSPTDIQDSSIKR [I23K] — lower, 1.4
- VSHVFMLLFNVKSPTDIQDSSILR [I23L] — higher, 5.03
- VSHVFMLLFNVKSPTDIQDSSIMR [I23M] — higher, 4.19
- VSHVFMLLFNVKSPTDIQDSSINR [I23N] — higher, 4.01
- VSHVFMLLFNVKSPTDIQDSSIPR [I23P] — lower, 1.33
- VSHVFMLLFNVKSPTDIQDSSIQR [I23Q] — higher, 2.79
- VSHVFMLLFNVKSPTDIQDSSIRR [I23R] — higher, 2.85
- VSHVFMLLFNVKSPTDIQDSSITR [I23T] — higher, 2.43
- VSHVFMLLFNVKSPTDIQDSSIVR [I23V] — higher, 2.75
- VSHVFMLLFNVKSPTDIQDSSIWR [I23W] — higher, 2.86
- VSHVFMLLFNVKSPTDIQDSSIYR [I23Y] — higher, 3.9
- VSHVFMLLFNVKSPTDIQDSSIIE [R24E] — higher, 2.74
- VSHVFMLLFNVKSPTDIQDSSIIF [R24F] — lower, 1.82
